Data on 15 variants can be found in the supplement of paper PMC7125110.

Sequences and labels used below:
B1: glmS ribozyme (parent)
chain: AUAAAAGCGCCAGAACUACAGAAAUGUAGUUGACGAGGAGGAGGUUUAUCGAAUUUUCGGCGGAUGCCUCCAAA

± gives the standard error. Fewer inactive variants are shown than the library holds. Some results are limits rather than exact numbers.

Conditions in all cases: with glucosamine-6-phosphate
The variants in series [1] derive from B1. Briefly: self-cleavage kobs at 160 uM GlcN6P; higher = faster cleavage; RNA array. An outline of the steps:
(§1)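 Using a hybridised Cy3 probe at 37 °C, barcoded ribozyme variants transcribed in situ by E. coli RNA polymerase on sequenced MiSeq chips were monitored across tiles imaged over ~14 h. The flow contained glucosamine-6-phosphate from 40 μM to 10 mM in HEPES/KCl/Mg(OAc)2 buffer. Signals were normalised to baseline and to non-cleaving reference variants before per-tile medians were fit to one- or two-exponential decays to yield kobs. Weighted Michaelis–Menten fits across concentrations gave kcat and KM.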

The variants in series [2] derive from B1. As to the kind of experiment: self-cleavage kobs at 640 uM GlcN6P; higher = faster cleavage; RNA array. The procedure, abridged: as §1
In series [3] the parent is B1. Briefly: self-cleavage kobs at 2500 uM GlcN6P; higher = faster cleavage; RNA array. The procedure, abridged:
as §1

Variants of B1 are the subject of series [4]. Briefly: self-cleavage kobs at 10000 uM GlcN6P; higher = faster cleavage; RNA array. An outline of the steps: as §1

Take AUAAAAGCGCCAGAACUACAGAAAUGUAGUUGAAGAGGAGGAGGUUUAUCGAAUAUUCGGCGGAUGCCUCCAAA [C34A U55A]: in the series with glucosamine-6-phosphate [1], the “self-cleavage kobs at 160 uM GlcN6P” value is less than 1e-05 s⁻¹. Moreover, the “self-cleavage kobs at 640 uM GlcN6P” value with glucosamine-6-phosphate [2] was less than 1e-05 s⁻¹. In addition, the “self-cleavage kobs at 2500 uM GlcN6P” value with glucosamine-6-phosphate [3] is less than 1e-05 s⁻¹.

For AUAAAAGCGCCAGAACUACAGAAAUGUAGUUGACGAGGAGGAGCUUUAUCGAAUUUUCGGGGGAUGCCUCCAAA [G44C C61G], in the series with glucosamine-6-phosphate [1], the “self-cleavage kobs at 160 uM GlcN6P” value was less than 1e-05 s⁻¹. Further, the “self-cleavage kobs at 640 uM GlcN6P” value in the series with glucosamine-6-phosphate [2] was less than 1e-05 s⁻¹. In the series with glucosamine-6-phosphate [4], the “self-cleavage kobs at 10000 uM GlcN6P” value is less than 1e-05 s⁻¹.

With AUAAAAGCGCCAGAACUACAGAAAUGUAGUUGACAAGGAGGAGGUUUAACGAAUUUUCGGCGGAUGCCUCCAAA [G35A U49A], the “self-cleavage kobs at 160 uM GlcN6P” value in the series with glucosamine-6-phosphate [1] is less than 1e-05 s⁻¹. The “self-cleavage kobs at 640 uM GlcN6P” value with glucosamine-6-phosphate [2] was less than 1e-05 s⁻¹. Moreover, the “self-cleavage kobs at 10000 uM GlcN6P” value with glucosamine-6-phosphate [4] is less than 1e-05 s⁻¹.

For the variant AUAAAAGCGCGAGAACUACAGAAAUGUAGUAGACGAGGAGGAGGUUGAUCGAAUUUUCGGCGGAUGCCUCCAAA [C11G U31A U47G], the “self-cleavage kobs at 160 uM GlcN6P” value in the series with glucosamine-6-phosphate [1] is less than 1e-05 s⁻¹.

Take AUAAAAGCGCCAGAACUACAGAAAUGUAGUUGACGAGGAGGAGGUUUAUCGACUUUUCGGCGAAUGCCUCCAAA [A53C G63A]: in the series with glucosamine-6-phosphate [1], the “self-cleavage kobs at 160 uM GlcN6P” value is less than 1e-05 s⁻¹. The “self-cleavage kobs at 640 uM GlcN6P” value with glucosamine-6-phosphate [2] is less than 1e-05 s⁻¹. Also, the “self-cleavage kobs at 10000 uM GlcN6P” value with glucosamine-6-phosphate [4] was less than 1e-05 s⁻¹.

For AUAAAAGCGCCACAACUACAGAAAUGUAGUUGACGAGGAUGAGGUUUAUCGAAUUUUCCGCGGAUGCCUCCAAA [G13C G40U G59C], the “self-cleavage kobs at 160 uM GlcN6P” value in the series with glucosamine-6-phosphate [1] was less than 1e-05 s⁻¹. Also, the “self-cleavage kobs at 640 uM GlcN6P” value in the series with glucosamine-6-phosphate [2] was less than 1e-05 s⁻¹. In addition, the “self-cleavage kobs at 2500 uM GlcN6P” value with glucosamine-6-phosphate [3] is less than 1e-05 s⁻¹.

Take AUAAAAGCGCCAGAACUACAGAAAUGUAGUUAACGAGGAGGUGGUUUAUCGAAUUUUCGGCGGAUGCCUCCAAA [G32A A42U]: in the series with glucosamine-6-phosphate [1], the “self-cleavage kobs at 160 uM GlcN6P” value is less than 1e-05 s⁻¹. In addition, the “self-cleavage kobs at 640 uM GlcN6P” value with glucosamine-6-phosphate [2] is less than 1e-05 s⁻¹.

Regarding AUAAAAGCGCCAGUACUACAGAAAUGUAGUUGACGAGGAGGAUGUUUAUCCAAUUUUCGGCGGAUGCCUCCAAA [A14U G43U G51C], the “self-cleavage kobs at 160 uM GlcN6P” value with glucosamine-6-phosphate [1] is less than 1e-05 s⁻¹.

Regarding AUAAAAGCGCCAGAACUACAGAAAUGUAGAUGACGAGUAGGAGGUUUAUCGAAUUUUCGGCGGAGGCGUCCAAA [U30A G38U U65G C68G], in the series with glucosamine-6-phosphate [1], the “self-cleavage kobs at 160 uM GlcN6P” value is 0.000204 ± 4.9e-05 s⁻¹. The “self-cleavage kobs at 640 uM GlcN6P” value with glucosamine-6-phosphate [2] is 0.000139 ± 4.3e-05 s⁻¹. The “self-cleavage kobs at 2500 uM GlcN6P” value in the series with glucosamine-6-phosphate [3] stood at 0.000149 ± 4.5e-05 s⁻¹. Further, the “self-cleavage kobs at 10000 uM GlcN6P” value with glucosamine-6-phosphate [4] came out at 7.88e-05 ± 1.5e-05 s⁻¹.

For AUAAAAGCGCCAGAACUACAGAAAUGUAGUUGACGAGACUGAAGUUUAGCGAACUUUCGGCGGAUGCCUCCAAA [G38A A39C G40U G43A U49G U54C], in the series with glucosamine-6-phosphate [1], the “self-cleavage kobs at 160 uM GlcN6P” value is less than 1e-05 s⁻¹. The “self-cleavage kobs at 640 uM GlcN6P” value with glucosamine-6-phosphate [2] was less than 1e-05 s⁻¹. Moreover, in the series with glucosamine-6-phosphate [3], the “self-cleavage kobs at 2500 uM GlcN6P” value is less than 1e-05 s⁻¹.

For AUAAAAGCGCCAGAACUACAGAAAUGUAGUUGACGAGGAGAAGGUUUAUCGAUGUUUCGGCGGAUGCCUCCAAA [G41A A53U U54G], the “self-cleavage kobs at 160 uM GlcN6P” value with glucosamine-6-phosphate [1] was 0.000102 ± 3.4e-05 s⁻¹. Further, the “self-cleavage kobs at 640 uM GlcN6P” value with glucosamine-6-phosphate [2] was determined as 0.000241 ± 8.7e-05 s⁻¹. Besides, the “self-cleavage kobs at 2500 uM GlcN6P” value with glucosamine-6-phosphate [3] came out at 0.000742 ± 0.0002 s⁻¹. The “self-cleavage kobs at 10000 uM GlcN6P” value with glucosamine-6-phosphate [4] stood at 0.000285 ± 7.8e-05 s⁻¹.

AUAAAAGCGCCAGAACUACAGAAAUGUAGUUGACGAGGAGUAGGUUUAUCCAAUUUUCGGCAGAUGCUUCCAAA [G41U G51C G62A C68U]: the “self-cleavage kobs at 160 uM GlcN6P” value with glucosamine-6-phosphate [1] is less than 1e-05 s⁻¹. The “self-cleavage kobs at 640 uM GlcN6P” value in the series with glucosamine-6-phosphate [2] was less than 1e-05 s⁻¹. In addition, the “self-cleavage kobs at 2500 uM GlcN6P” value with glucosamine-6-phosphate [3] was less than 1e-05 s⁻¹.

Consider AUAAAAGCGCUAGAACUACAGAAAUGUAGUUCACGAGGAGGGGGUUUAUCGAAUUUUCUGCGGAUGCCUCCAAA [C11U G32C A42G G59U], for which the “self-cleavage kobs at 160 uM GlcN6P” value with glucosamine-6-phosphate [1] was less than 1e-05 s⁻¹. Also, the “self-cleavage kobs at 2500 uM GlcN6P” value with glucosamine-6-phosphate [3] is less than 1e-05 s⁻¹.

As for AUAAAAGCGCCAGAACUACAGAAAUGUAGCUGACGAGGAGGACGUUUAUCGAAUUUUCGGCGGAUGCGUCCAAA [U30C G43C C68G], the “self-cleavage kobs at 160 uM GlcN6P” value with glucosamine-6-phosphate [1] was 7.51e-05 ± 2.2e-05 s⁻¹.

In the case of AUAAAAGCGCCAGAUCUACAGAAAUGUAGUUGACGAGGAGGAGGUUUAUCGUAUUUUAGGCGGAUGCCUUCAAA [A15U A52U C58A C70U], the “self-cleavage kobs at 160 uM GlcN6P” value with glucosamine-6-phosphate [1] is less than 1e-05 s⁻¹.
